Experimental data published in patent publication US11524046B2, “Biofilm prevention, disruption and treatment with bacteriophage lysin” (priority 2012, dated 2022).
Like-named read-outs stand apart in the source and are kept apart here.

How the values were obtained:
Listeria monocytogenes = assay: MIC of PlySs2, susceptible and non-susceptible bacterial strains; assay type: cell-based; settings: Listeria monocytogenes (12)
[1] = test system: Streptococcus pyogenes, Group A; assay: as above; assay type: cell-based; settings: Group A (54)
Lactococcus spp. = settings: N 3
Lactobacillus spp. = settings: N 6
Bacillus cereus = Bacillus cereus (10)
[2] = test system: methicillin resistant S. aureus MRSA strain ATCC BAA-42; assay: MIC by broth microdilution (CLSI M07-A9) against strain ATCC BAA-42; assay type: cell-based
[3] = test system: Streptococcus agalactiae, Group B; assay: MIC of PlySs2, susceptible and non-susceptible bacterial strains; assay type: cell-based; settings: Group B (51)
[4] = test system: Staphylococcus epidermidis biofilms; assay: Biofilm eradicating concentration (BEC), 24 h biofilms in 24 well plates, crystal violet; assay type: cell-based
Staphylcoccus aureus = assay: MIC of PlySs2, susceptible and non-susceptible bacterial strains; assay type: cell-based
[5] = test system: biofilms of MRSA strain CFS 218 (MRSA strain ATCC BAA-42); assay: Scanning electron microscopy of treated catheter biofilms; assay type: cell-based, S. aureus; settings: 1×MIC (32 ug/ml)
From the text: Biofilms were generated on catheter tubing (PVC with DEHP as plasticizer) as above and evaluated for PlySs2 sensitivity by scanning electron microscopy (SEM). […] After fixation on the catheter surface, samples were further processed and analyzed by scanning electron microscopy at 5000× magnification (FIGS. 21A-21C). Treatment with buffer alone (ie, Lactated Ringer's Solution alone) is included as a control.

S. aureus strains = assay: PlySs2 and antibiotic MIC, broth microdilution, 80% growth inhibition (CLSI M07-A9); assay type: cell-based
[6] = test system: Staphylococcus epidermidis strains; assay type: cell-based
Pseudomonas aeruginosa = Pseudomonas aeruginosa (5)
Streptococcus pneumoniae = assay: MIC of PlySs2, susceptible and non-susceptible bacterial strains; assay type: cell-based; settings: Streptococcus pneumoniae (26)
[7] = test system: Staphylococcus lugdiensis; assay: as above; assay type: cell-based; settings: Staphylococcus lugdiensis (10)
[8] = test system: S. epidermidis (strain CFS 313 NRS34) biofilm; assay: S. epidermidis catheter biofilm titration, methylene blue staining; assay type: cell-based; settings: MIC 8 ug/ml
Description: S. epidermidis biofilms in catheters were treated with PlySs2 and evaluated using methods similarly as described above for the S. aureus studies.
The results of S. epidermidis (strain CFS 313 NRS34, which is a vancomycin intermediate sensitive S. epidermidis (VISE) strain) biofilm studies on catheters treated with PlySs2 at 10×MIC and below are shown in FIG. 17. S. epidermidis biofilm is destroyed at PlySs2 concentrations down to 0.1×MIC. The MIC here is 8 ug/ml.

[9] = test system: MRSA strains CFS 553 (ATCC 43300) and CFS 992 (JMI 5381); assay: MIC of PlySs2 against additional MRSA strains; assay type: cell-based, S. aureus
staphylococci = assay: PlySs2 stability at 37° C. in Lactated Ringer's solution, residual lytic activity; assay type: physicochemical; settings: 1X MIC
Description: To determine the stability of PlySs2 in a simulated catheter setting, PlySs2 was incubated at various concentrations in Lactated Ringer's solution at 37° C. After 7 days, the lytic activity of PlySs2 was assessed by adding 1×10^5 staphylococci, incubating for 4 hours, then treating with proteinase K to remove residual PlySs2, and serial dilution and plating for viability. The resulting CFU value for each condition was divided by 1×10^5 to determine the % Loss of Activity.

[10] = test system: Antibiotic-Resistant Staphylococcus aureus; assay: MIC of PlySs2 against antibiotic-resistant S. aureus; assay type: cell-based; parameters: unit not given here
[11] = CFS 533, NRS6, (VISE), bloodstream USA

B1: PlySs2: bacteriophage lysin derived from Streptococcus suis, amino acid sequence of FIG. 5 / SEQ ID NO: 1; CHAP and SH3 domains (protein, listed as Streptococcus suis)
chain: MTTVNEALNNVRAQVGSGVSVGNGECYALASWYERMISPDATVGLGAGVGWVSGAIGDTISAKNIGSSYNWQANGWTVSTSGPFKAGQIVTLGATPGNPYGHVVIVEAVDGDRLTILEQNYGGKRYPVRNYYSAASYRQQVVHYITPPGTVAQSAPNLAGSRSYRETGTMTVTVDALNVRRAPNTSGEIVAVYKRGESFDYDTVIIDVNGYVWVSYIGGSGKRNYVATGATKDGKRFGNAWGTFK
MIC 50% (Listeria monocytogenes): 128 µg/mL | MIC 90% (Listeria monocytogenes): 512 µg/mL | MIC Range (Listeria monocytogenes): 1 to 512 µg/mL | MIC 50% [1]: 2 µg/mL | MIC 90% [1]: 8 µg/mL | MIC Range [1]: 0.5 to 8 µg/mL | CF-301 MIC (Lactococcus spp.): >512 µg/mL | CF-301 MIC (Lactobacillus spp.): >512 µg/mL | MIC 50% (Bacillus cereus): >512 µg/mL | MIC 90% (Bacillus cereus): >512 µg/mL | MIC Range (Bacillus cereus): >512 µg/mL | MIC value ([2]; ATCC BAA-42, in the absence of reducing agent): 32 µg/mL | Minimally inhibitory concentration (MIC) ([2]; ATCC BAA-42, in the presence of reducing agent (such as DTT or BMS)): 16 µg/mL | MIC 50% [3]: 8 µg/mL | MIC 90% [3]: 16 µg/mL | MIC Range [3]: 1 to 64 µg/mL | BEC ([4]; CFS 166, Environmental lab contaiminant): 5.12 µg/mL | BEC ([4]; CFS 224, HER 1292): 5.12 µg/mL | BEC ([4]; CFS 225, HPH-6): 0.512 µg/mL | BEC ([4]; CFS 226, HPH-5): 5.12 µg/mL | BEC ([4]; CFS 227, HCN-4): 5.12 µg/mL | BEC ([4]; CFS 272, NRS53 (VISE)): 0.215 µg/mL | BEC ([4]; CFS 280, NRS101 (MRSE)): 0.512 µg/mL | BEC ([4]; CFS 300, NRS8, (VISE)): 0.512 µg/mL | BEC ([4]; CFS 313, NRS34 (VISE)): 0.512 µg/mL | BEC [4, 11]: 0.512 µg/mL | BEC ([4]; CFS 552, ATCC #12228 (MSSE)): 51.2 µg/mL | BEC ([4]; CFS 769, NRS101): 0.512 µg/mL | BEC ([4]; CFS 1152, ATCC-14990): 5.12 µg/mL | BEC ([4]; CFS 1154, ATCC-49461): 5.12 µg/mL | BEC ([4]; CFS 1161, NRS850-VCU028): 5.12 µg/mL | BEC ([4]; CFS 1164, NRS853-VCU041): 5.12 µg/mL | BEC ([4]; CFS 1165, NRS854-VCU045): 5.12 µg/mL | BEC ([4]; CFS 1168, NRS857-VCU065): 0.512 µg/mL | BEC ([4]; CFS 1174, NRS864-VCU112): 51.2 µg/mL | BEC ([4]; CFS 1184, NRS874-VCU126): 5.12 µg/mL | BEC ([4]; CFS 1185, NRS875-VCU127): 5.12 µg/mL | BEC ([4]; CFS 1186, NRS876-VCU128): 0.512 µg/mL | MIC 50% (Staphylcoccus aureus; Methicillin resistant (120)): 4 µg/mL | MIC 90% (Staphylcoccus aureus; Methicillin resistant (120)): 8 µg/mL | MIC Range (Staphylcoccus aureus; Methicillin resistant (120)): 1 to 16 µg/mL | MIC 50% (Staphylcoccus aureus; Methicillin susceptible (103)): 4 µg/mL | MIC 90% (Staphylcoccus aureus; Methicillin susceptible (103)): 8 µg/mL | MIC Range (Staphylcoccus aureus; Methicillin susceptible (103)): 1 to 16 µg/mL | biofilm on catheter surface by SEM ([5]; 30 seconds): rapidly diminishes | biofilm on catheter surface by SEM ([5]; 15 minutes): almost completely removes | MIC90 (S. aureus strains; DRSA (n = 8)): 0.15 µM | MIC90 (S. aureus strains; LRSA (n = 5)): 0.08 µM | MIC90 (S. aureus strains; MRSA (n = 45)): 0.15 µM | MIC90 (S. aureus strains; MSSA (n-28)): 0.15 µM | MIC90 (S. aureus strains; VISA (n = 10)): 1.2 µM | MIC90 (S. aureus strains; VRSA (n = 14)): 0.08 µM | MIC ([6]; CFS 224, HER 1292): 512 µg/mL | MIC ([6]; CFS 225, HPH-6): 128 µg/mL | MIC ([6]; CFS 226, HPH-5): 512 µg/mL | MIC ([6]; CFS 227, HCN-4): >512 µg/mL | MIC ([6]; CFS 272, NRS53 (VISE)): 128 µg/mL | MIC ([6]; CFS 280, NRS101 (MRSE)): 128 µg/mL | MIC ([6]; CFS 300, NRS8, (VISE)): 32 µg/mL | MIC ([6]; CFS 313, NRS34 (VISE)): 8 µg/mL | MIC [6, 11]: >512 µg/mL | MIC ([6]; CFS 769, NRS101): 64 µg/mL | MIC 50% (Pseudomonas aeruginosa): >512 µg/mL | MIC 90% (Pseudomonas aeruginosa): >512 µg/mL | MIC Range (Pseudomonas aeruginosa): >512 µg/mL | MIC 50% (Streptococcus pneumoniae): 16 µg/mL | MIC 90% (Streptococcus pneumoniae): 64 µg/mL | MIC Range (Streptococcus pneumoniae): 1 to 64 µg/mL | MIC 50% [7]: 8 µg/mL | MIC 90% [7]: 8 µg/mL | MIC Range [7]: 8 µg/mL | lowest concentration at which biofilm is destroyed [8]: 0.1 ×MIC | 1×MIC ([9]; strain ATCC 4330): 16 µg/mL | 1×MIC ([9]; strain JMI 5381): 32 µg/mL | % LOSS OF ACTIVITY (7 days) (staphylococci): 58.3% | MIC 50% ([10]; Daptomycin-resistant (8)): 2 | MIC 90% ([10]; Daptomycin-resistant (8)): 4 | MIC Range ([10]; Daptomycin-resistant (8)): 2-4 | MIC 50% ([10]; Linezolid-resistant (5)): 2 | MIC 90% ([10]; Linezolid-resistant (5)): 2 | MIC Range ([10]; Linezolid-resistant (5)): 2-4 | MIC 50% ([10]; Vancomycin-intermediate (31)): 8 | MIC 90% ([10]; Vancomycin-intermediate (31)): 32 | MIC Range ([10]; Vancomycin-intermediate (31)): 1-64 | MIC 50% ([10]; Vancomycin-resistant (14)): 2 | MIC 90% ([10]; Vancomycin-resistant (14)): 4 | MIC Range ([10]; Vancomycin-resistant (14)): 1-4
